In article PMC6205234:

B1: Poly (A)18 (ssRNA)
RNA: AAAAAAAAAAAAAAAAAU
B2: Poly (C)18 (ssRNA)
RNA: CCCCCCCCCCCCCCCCCU

Columns and labels:
Experiment in all cases: fluorescence anisotropy
scPABP1 = scPABP1 (human, UniProt P11940 1-636, C43S;C128S;C132S)
PABP1 (WT) [1] = target: T1, PABP1 (WT) (human, UniProt P11940 1-636)
PABP1 (WT) [2] = target: T1, PABP1 (WT); remark: listed apart in the source

T1 sequence (P11940 whole entry): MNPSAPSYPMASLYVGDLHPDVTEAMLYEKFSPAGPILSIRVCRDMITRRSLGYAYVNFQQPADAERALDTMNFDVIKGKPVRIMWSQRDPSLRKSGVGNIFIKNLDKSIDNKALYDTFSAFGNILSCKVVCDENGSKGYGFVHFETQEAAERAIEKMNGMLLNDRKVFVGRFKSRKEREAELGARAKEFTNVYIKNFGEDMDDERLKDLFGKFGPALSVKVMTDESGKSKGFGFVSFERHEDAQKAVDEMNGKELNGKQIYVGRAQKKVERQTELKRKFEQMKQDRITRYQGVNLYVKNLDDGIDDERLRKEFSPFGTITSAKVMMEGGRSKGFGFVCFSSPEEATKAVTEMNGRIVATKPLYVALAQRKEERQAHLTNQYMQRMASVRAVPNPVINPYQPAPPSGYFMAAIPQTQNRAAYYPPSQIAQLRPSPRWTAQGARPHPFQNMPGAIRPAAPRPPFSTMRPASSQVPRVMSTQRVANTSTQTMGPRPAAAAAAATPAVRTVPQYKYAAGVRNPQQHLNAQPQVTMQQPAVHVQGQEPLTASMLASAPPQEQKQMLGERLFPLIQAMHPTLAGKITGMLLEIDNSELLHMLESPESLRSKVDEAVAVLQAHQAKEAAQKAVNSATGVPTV
Chain of scPABP1 (P11940 whole entry C43S/C128S/C132S): as the sequence (P11940 whole entry) above, with C43S, C128S, C132S counted along it

Row | Binder | Kd (scPABP1) [nM] | Kd (PABP1 (WT) [1]) [nM] | binding result (PABP1 (WT) [2])
1 | B1 | 5.1 ± 0.6 | 2 ± 0.5 | –
2 | B2 | – | – | no binding
